Measurements reported in the supplement of paper PMC5998384.

What was measured:
HeLa Kyoto [1] = test: melting temperature (median over replicates), in situ; higher = more thermally stable
HeLa Kyoto [2] = test: thermal stability score vs G1/S (z-score of summed log2 fold changes over temperatures); higher = more thermally stable than in G1/S
HeLa Kyoto [3] = test: solubility change mitosis vs G1/S (difference of NP-40 vs SDS log2 ratios) (log2 ratio difference); higher = more soluble in mitosis
HeLa Kyoto [4] = test: solubility in G1/S (NP-40 vs SDS abundance) (log2 ratio); higher = more soluble; conditions: cell cycle stage: G1/S
[5] = cell cycle stage: early G1 (4.5 h after nocodazole release)
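For melting temperature (median over replicates), in situ in this document: HeLa Kyoto cells synchronized by double thymidine or nocodazole block, proteins quantified by TMT10plex mass spectrometry, three independent biological replicates.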
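For solubility change mitosis vs G1/S (difference of NP-40 vs SDS log2 ratios) in this document: synchronized HeLa Kyoto cells (double thymidine block for G1/S, nocodazole release for mitosis), protein amounts in NP-40 versus SDS lysates quantified by mass spectrometry, three biological replicates.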
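For solubility in G1/S (NP-40 vs SDS abundance) in this document: HeLa Kyoto cells arrested at G1/S by double thymidine block, proteins quantified by TMT10plex mass spectrometry in mild NP-40 versus SDS extracts, three biological replicates.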
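For thermal stability score vs G1/S (z-score of summed log2 fold changes over temperatures) in this document: synchronized HeLa Kyoto cells, proteins quantified by TMT10plex mass spectrometry, three biological replicates, mitosis taken 0.5 h after nocodazole release, G1/S directly after double thymidine block.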

PRRC2A, sequence (chain, as listed by the source): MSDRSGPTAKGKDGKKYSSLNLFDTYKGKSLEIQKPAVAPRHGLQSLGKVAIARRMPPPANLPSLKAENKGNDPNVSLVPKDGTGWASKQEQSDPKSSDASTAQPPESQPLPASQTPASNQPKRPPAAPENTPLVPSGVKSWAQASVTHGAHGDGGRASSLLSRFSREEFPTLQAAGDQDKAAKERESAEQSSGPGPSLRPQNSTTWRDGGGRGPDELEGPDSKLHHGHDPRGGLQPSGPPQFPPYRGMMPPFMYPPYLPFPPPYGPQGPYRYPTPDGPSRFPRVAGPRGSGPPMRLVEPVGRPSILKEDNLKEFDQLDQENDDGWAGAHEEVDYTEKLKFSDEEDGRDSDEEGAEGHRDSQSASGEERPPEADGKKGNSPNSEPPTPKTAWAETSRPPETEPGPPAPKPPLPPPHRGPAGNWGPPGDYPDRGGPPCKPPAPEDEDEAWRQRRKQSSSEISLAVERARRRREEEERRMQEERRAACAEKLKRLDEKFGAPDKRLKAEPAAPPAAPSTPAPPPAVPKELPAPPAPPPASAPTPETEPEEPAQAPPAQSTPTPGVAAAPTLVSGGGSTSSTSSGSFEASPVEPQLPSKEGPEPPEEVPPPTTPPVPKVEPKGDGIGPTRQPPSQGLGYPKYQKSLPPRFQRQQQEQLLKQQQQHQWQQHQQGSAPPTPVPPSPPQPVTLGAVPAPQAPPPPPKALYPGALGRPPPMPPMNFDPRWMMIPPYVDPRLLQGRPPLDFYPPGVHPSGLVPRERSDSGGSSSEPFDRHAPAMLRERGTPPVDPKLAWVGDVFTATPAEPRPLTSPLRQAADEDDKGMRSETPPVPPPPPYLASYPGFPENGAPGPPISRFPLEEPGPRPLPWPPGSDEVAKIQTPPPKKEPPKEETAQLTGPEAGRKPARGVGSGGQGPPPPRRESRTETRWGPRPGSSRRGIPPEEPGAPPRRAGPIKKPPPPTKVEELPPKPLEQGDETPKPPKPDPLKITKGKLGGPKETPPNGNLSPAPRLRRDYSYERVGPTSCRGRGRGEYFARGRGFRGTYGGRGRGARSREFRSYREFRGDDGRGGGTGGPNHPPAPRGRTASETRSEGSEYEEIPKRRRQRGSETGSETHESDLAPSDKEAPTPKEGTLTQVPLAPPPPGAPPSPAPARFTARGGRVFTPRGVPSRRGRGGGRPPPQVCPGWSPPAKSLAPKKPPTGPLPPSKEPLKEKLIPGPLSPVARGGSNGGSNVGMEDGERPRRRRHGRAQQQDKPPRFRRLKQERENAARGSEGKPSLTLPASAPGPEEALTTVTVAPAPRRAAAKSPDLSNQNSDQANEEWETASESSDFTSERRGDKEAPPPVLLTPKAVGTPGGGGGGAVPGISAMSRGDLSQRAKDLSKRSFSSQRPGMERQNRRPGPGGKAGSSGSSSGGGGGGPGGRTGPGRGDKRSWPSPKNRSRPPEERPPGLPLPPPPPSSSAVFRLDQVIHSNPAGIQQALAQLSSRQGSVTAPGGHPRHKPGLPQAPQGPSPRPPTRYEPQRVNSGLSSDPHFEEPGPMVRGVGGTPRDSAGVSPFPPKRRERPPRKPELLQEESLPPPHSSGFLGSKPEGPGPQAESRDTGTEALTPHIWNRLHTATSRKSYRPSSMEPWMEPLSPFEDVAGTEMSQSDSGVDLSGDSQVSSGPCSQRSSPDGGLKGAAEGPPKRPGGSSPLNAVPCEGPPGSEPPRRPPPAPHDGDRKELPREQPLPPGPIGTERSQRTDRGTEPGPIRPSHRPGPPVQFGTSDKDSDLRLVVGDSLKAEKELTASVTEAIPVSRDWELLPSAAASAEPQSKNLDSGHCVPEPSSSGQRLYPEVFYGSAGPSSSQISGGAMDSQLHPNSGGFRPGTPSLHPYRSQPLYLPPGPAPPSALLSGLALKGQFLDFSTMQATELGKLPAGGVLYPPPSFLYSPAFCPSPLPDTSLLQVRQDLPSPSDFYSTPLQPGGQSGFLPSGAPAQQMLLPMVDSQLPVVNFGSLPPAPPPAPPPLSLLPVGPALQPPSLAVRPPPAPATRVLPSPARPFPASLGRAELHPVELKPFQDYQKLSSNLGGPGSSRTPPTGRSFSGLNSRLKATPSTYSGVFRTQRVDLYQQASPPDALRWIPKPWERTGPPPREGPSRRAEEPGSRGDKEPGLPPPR

Substance	melting temperature (HeLa Kyoto [1]; cell cycle stage: G1/S) [°C]	melting temperature (HeLa Kyoto [1]; cell cycle stage: mitosis) [°C]	thermal stability score (HeLa Kyoto [2]; [5])	thermal stability score (HeLa Kyoto [2]; cell cycle stage: mitosis)	solubility change mitosis (log2) (HeLa Kyoto [3])	solubility in G1/S (log2) (HeLa Kyoto [4])
MGWVGGRRRDSASPPGRSRSAADDINPAPANMEGGGGSVAVAGLGARGSGAAAATVRELLQDGCYSDFLNEDFDVKTYTSQSIHQAVIAEQLAKLAQGISQLDRELHLQVVARHEDLLAQATGIESLEGVLQMMQTRIGALQGAVDRIKAKIVEPYNKIVARTAQLARLQVACDLLRRIIRILNLSKRLQGQLQGGSREITKAAQSLNELDYLSQGIDLSGIEVIENDLLFIARARLEVENQAKRLLEQGLETQNPTQVGTALQVFYNLGTLKDTITSVVDGYCATLEENINSALDIKVLTQPSQSAVRGGPGRSTMPTPGNTAALRASFWTNMEKLMDHIYAVCGQVQHLQKVLAKKRDPVSHICFIEEIVKDGQPEIFYTFWNSVTQALSSQFHMATNSSMFLKQAFEGEYPKLLRLYNDLWKRLQQYSQHIQGNFNASGTTDLYVDLQHMEDDAQDIFIPKKPDYDPEKALKDSLQPYEAAYLSKSLSRLFDPINLVFPPGGRNPPSSDELDGIIKTIASELNVAAVDTNLTLAVSKNVAKTIQLYSVKSEQLLSTQGDASQVIGPLTEGQRRNVAVVNSLYKLHQSVTKVVSSQSSFPLAAEQTIISALKAIHALMENAVQPLLTSVGDAIEAIIITMHQEDFSGSLSSSGKPDVPCSLYMKELQGFIARVMSDYFKHFECLDFVFDNTEAIAQRAVELFIRHASLIRPLGEGGKMRLAADFAQMELAVGPFCRRVSDLGKSYRMLRSFRPLLFQASEHVASSPALGDVIPFSIIIQFLFTRAPAELKSPFQRAEWSHTRFSQWLDDHPSEKDRLLLIRGALEAYVQSVRSREGKEFAPVYPIMVQLLQKAMSALQ [COG5]	48.3	48	0.309	0.873	-0.0443	0.00411
MALFAVFQTTFFLTLLSLRTYQSEVLAERLPLTPVSLKVSTNSTRQSLHLQWTVHNLPYHQELKMVFQIQISRIETSNVIWVGNYSTTVKWNQVLHWSWESELPLECATHFVRIKSLVDDAKFPEPNFWSNWSSWEEVSVQDSTGQDILFVFPKDKLVEEGTNVTICYVSRNIQNNVSCYLEGKQIHGEQLDPHVTAFNLNSVPFIRNKGTNIYCEASQGNVSEGMKGIVLFVSKVLEEPKDFSCETEDFKTLHCTWDPGTDTALGWSKQPSQSYTLFESFSGEKKLCTHKNWCNWQITQDSQETYNFTLIAENYLRKRSVNILFNLTHRVYLMNPFSVNFENVNATNAIMTWKVHSIRNNFTYLCQIELHGEGKMMQYNVSIKVNGEYFLSELEPATEYMARVRCADASHFWKWSEWSGQNFTTLEAAPSEAPDVWRIVSLEPGNHTVTLFWKPLSKLHANGKILFYNVVVENLDKPSSSELHSIPAPANSTKLILDRCSYQICVIANNSVGASPASVIVISADPENKEVEEERIAGTEGGFSLSWKPQPGDVIGYVVDWCDHTQDVLGDFQWKNVGPNTTSTVISTDAFRPGVRYDFRIYGLSTKRIACLLEKKTGYSQELAPSDNPHVLVDTLTSHSFTLSWKDYSTESQPGFIQGYHVYLKSKARQCHPRFEKAVLSDGSECCKYKIDNPEEKALIVDNLKPESFYEFFITPFTSAGEGPSATFTKVTTPDEHSSMLIHILLPMVFCVLLIMVMCYLKSQWIKETCYPDIPDPYKSSILSLIKFKENPHLIIMNVSDCIPDAIEVVSKPEGTKIQFLGTRKSLTETELTKPNYLYLLPTEKNHSGPGPCICFENLTYNQAASDSGSCGHVPVSPKAPSMLGLMTSPENVLKALEKNYMNSLGEIPAGETSLNYVSQLASPMFGDKDSLPTNPVEAPHCSEYKMQMAVSLRLALPPPTENSSLSSITLLDPGEHYC [OSMR]	50.9	51.1	0.598	-0.083	-0.0968	-0.0468
PDE4DIP	51.6	–	0.534	0.401	0.0943	0.0173
MATCIWLRSCGARRLGSTFPGCRLRPRAGGLVPASGPAPGPAQLRCYAGRLAGLSAALLRTDSFVGGRWLPAAATFPVQDPASGAALGMVADCGVREARAAVRAAYEAFCRWREVSAKERSSLLRKWYNLMIQNKDDLARIITAESGKPLKEAHGEILYSAFFLEWFSEEARRVYGDIIHTPAKDRRALVLKQPIGVAAVITPWNFPSAMITRKVGAALAAGCTVVVKPAEDTPFSALALAELASQAGIPSGVYNVIPCSRKNAKEVGEAICTDPLVSKISFTGSTTTGKILLHHAANSVKRVSMELGGLAPFIVFDSANVDQAVAGAMASKFRNTGQTCVCSNQFLVQRGIHDAFVKAFAEAMKKNLRVGNGFEEGTTQGPLINEKAVEKVEKQVNDAVSKGATVVTGGKRHQLGKNFFEPTLLCNVTQDMLCTHEETFGPLAPVIKFDTEEEAIAIANAADVGLAGYFYSQDPAQIWRVAEQLEVGMVGVNEGLISSVECPFGGVKQSGLGREGSKYGIDEYLELKYVCYGGL [ALDH5A1]	56.1	54.8	1.08	0.0757	-0.0409	0.125
MSQAVQTNGTQPLSKTWELSLYELQRTPQEAITDGLEIVVSPRSLHSELMCPICLDMLKNTMTTKECLHRFCADCIITALRSGNKECPTCRKKLVSKRSLRPDPNFDALISKIYPSRDEYEAHQERVLARINKHNNQQALSHSIEEGLKIQAMNRLQRGKKQQIENGSGAEDNGDSSHCSNASTHSNQEAGPSNKRTKTSDDSGLELDNNNAAMAIDPVMDGASEIELVFRPHPTLMEKDDSAQTRYIKTSGNATVDHLSKYLAVRLALEELRSKGESNQMNLDTASEKQYTIYIATASGQFTVLNGSFSLELVSEKYWKVNKPMELYYAPTKEHK [RNF2]	49.2	51.7	0.412	0.728	0.211	-0.307
PCMT1	54	54.8	0.536	-0.469	0.147	0.427
MVLCPVIGKLLHKRVVLASASPRRQEILSNAGLRFEVVPSKFKEKLDKASFATPYGYAMETAKQKALEVANRLYQKDLRAPDVVIGADTIVTVGGLILEKPVDKQDAYRMLSRLSGREHSVFTGVAIVHCSSKDHQLDTRVSEFYEETKVKFSELSEELLWEYVHSGEPMDKAGGYGIQALGGMLVESVHGDFLNVVGFPLNHFCKQLVKLYYPPRPEDLRRSVKHDSIPAADTFEDLSDVEGGGSEPTQRDAGSRDEKAEAGEAGQATAEAECHRTRETLPPFPTRLLELIEGFMLSKGLLTACKLKVFDLLKDEAPQKAADIASKVDASACGMERLLDICAAMGLLEKTEQGYSNTETANVYLASDGEYSLHGFIMHNNDLTWNLFTYLEFAIREGTNQHHRALGKKAEDLFQDAYYQSPETRLRFMRAMHGMTKLTACQVATAFNLSRFSSACDVGGCTGALARELAREYPRMQVTVFDLPDIIELAAHFQPPGPQAVQIHFAAGDFFRDPLPSAELYVLCRILHDWPDDKVHKLLSRVAESCKPGAGLLLVETLLDEEKRVAQRALMQSLNMLVQTEGKERSLGEYQCLLELHGFHQVQVVHLGGVLDAILATKVAP [ASMTL]	51.6	50.8	0.0527	0.533	-0.178	-0.0739
PRRC2A	53.7	55.1	0.422	0.00992	0.0463	-0.105
MSGLSGPPARRGPFPLALLLLFLLGPRLVLAISFHLPINSRKCLREEIHKDLLVTGAYEISDQSGGAGGLRSHLKITDSAGHILYSKEDATKGKFAFTTEDYDMFEVCFESKGTGRIPDQLVILDMKHGVEAKNYEEIAKVEKLKPLEVELRRLEDLSESIVNDFAYMKKREEEMRDTNESTNTRVLYFSIFSMFCLIGLATWQVFYLRRFFKAKKLIE [TMED10]	55.3	55.8	0.651	-0.174	-0.0383	0.076
MGKKGKKEKKGRGAEKTAAKMEKKVSKRSRKEEEDLEALIAHFQTLDAKRTQTVELPCPPPSPRLNASLSVHPEKDELILFGGEYFNGQKTFLYNELYVYNTRKDTWTKVDIPSPPPRRCAHQAVVVPQGGGQLWVFGGEFASPNGEQFYHYKDLWVLHLATKTWEQVKSTGGPSGRSGHRMVAWKRQLILFGGFHESTRDYIYYNDVYAFNLDTFTWSKLSPSGTGPTPRSGCQMSVTPQGGIVVYGGYSKQRVKKDVDKGTRHSDMFLLKPEDGREDKWVWTRMNPSGVKPTPRSGFSVAMAPNHQTLFFGGVCDEEEEESLSGEFFNDLYFYDATRNRWFEGQLKGPKSEKKKRRRGRKEEPEGGSRPACGGAGTQGPVQLVKEVVAEDGTVVTIKQVLTAPGSAGQPRSEDEDSLEEAGSPAPGPCPRSNAMLAVKHGVLYVYGGMFEAGDRQVTLSDLHCLDLHRMEAWKALVEMDPETQEWLEETDSEEDSEEVEGAEGGVDDEDSGEESGAED [KLHDC4]	49.7	48.9	-0.0688	-0.148	-0.00461	-0.239
MCDFTEDQTAEFKEAFQLFDRTGDGKILYSQCGDVMRALGQNPTNAEVLKVLGNPKSDEMNVKVLDFEHFLPMLQTVAKNKDQGTYEDYVEGLRVFDKEGNGTVMGAEIRHVLVTLGEKMTEEEVEMLVAGHEDSNGCINYEAFVRHILSG [MYL6]	51.8	51.7	-3.33	-1.53	0.21	-0.12
MAAAVAAAPGALGSLHAGGARLVAACSAWLCPGLRLPGSLAGRRAGPAIWAQGWVPAAGGPAPKRGYSSEMKTEDELRVRHLEEENRGIVVLGINRAYGKNSLSKNLIKMLSKAVDALKSDKKVRTIIIRSEVPGIFCAGADLKERAKMSSSEVGPFVSKIRAVINDIANLPVPTIAAIDGLALGGGLELALACDIRVAASSAKMGLVETKLAIIPGGGGTQRLPRAIGMSLAKELIFSARVLDGKEAKAVGLISHVLEQNQEGDAAYRKALDLAREFLPQGPVAMRVAKLAINQGMEVDLVTGLAIEEACYAQTIPTKDRLEGLLAFKEKRPPRYKGE [AUH]	51.6	51.6	0.266	1.09	-0.0164	0.261
MGVQGLWKLLECSGRQVSPEALEGKILAVDISIWLNQALKGVRDRHGNSIENPHLLTLFHRLCKLLFFRIRPIFVFDGDAPLLKKQTLVKRRQRKDLASSDSRKTTEKLLKTFLKRQAIKTAFRSKRDEALPSLTQVRRENDLYVLPPLQEEEKHSSEEEDEKEWQERMNQKQALQEEFFHNPQAIDIESEDFSSLPPEVKHEILTDMKEFTKRRRTLFEAMPEESDDFSQYQLKGLLKKNYLNQHIEHVQKEMNQQHSGHIRRQYEDEGGFLKEVESRRVVSEDTSHYILIKGIQAKTVAEVDSESLPSSSKMHGMSFDVKSSPCEKLKTEKEPDATPPSPRTLLAMQAALLGSSSEEELESENRRQARGRNAPAAVDEGSISPRTLSAIKRALDDDEDVKVCAGDDVQTGGPGAEEMRINSSTENSDEGLKVRDGKGIPFTATLASSSVNSAEEHVASTNEGREPTDSVPKEQMSLVHVGTEAFPISDESMIKDRKDRLPLESAVVRHSDAPGLPNGRELTPASPTCTNSVSKNETHAEVLEQQNELCPYESKFDSSLLSSDDETKCKPNSASEVIGPVSLQETSSIVSVPSEAVDNVENVVSFNAKEHENFLETIQEQQTTESAGQDLISIPKAVEPMEIDSEESESDGSFIEVQSVISDEELQAEFPETSKPPSEQGEEELVGTREGEAPAESESLLRDNSERDDVDGEPQEAEKDAEDSLHEWQDINLEELETLESNLLAQQNSLKAQKQQQERIAATVTGQMFLESQELLRLFGIPYIQAPMEAEAQCAILDLTDQTSGTITDDSDIWLFGARHVYRNFFNKNKFVEYYQYVDFHNQLGLDRNKLINLAYLLGSDYTEGIPTVGCVTAMEILNEFPGHGLEPLLKFSEWWHEAQKNPKIRPNPHDTKVKKKLRTLQLTPGFPNPAVAEAYLKPVVDDSKGSFLWGKPDLDKIREFCQRYFGWNRTKTDESLFPVLKQLDAQQTQLRIDSFFRLAQQEKEDAKRIKSQRLNRAVTCMLRKEKEAAASEIEAVSVAMEKEFELLDKAKGKTQKRGITNTLEESSSLKRKRLSDSKGKNTCGGFLGETCLSESSDGSSSEDAESSSLMNVQRRTAAKEPKTSASDSQNSVKEAPVKNGGATTSSSSDSDDDGGKEKMVLVTARSVFGKKRRKLRRARGRKRKT [ERCC5]	50.7	51.4	0.19	1.18	-0.0796	-0.112
